Measurements: the Human Domainome abundance scans (Beltran et al. 2025)
± gives the uncertainty stated by the source.

B1: V(D)J recombination-activating protein 2, residues 415 to 491; numbered along this chain, P55895 (parent)
chain: YWITCCPTCDVDINTWVPFYSTELNKPAMIYCSHGDGHWVHAQCMDLAERTLIHLSAGSNKYYCNEHVEIARALHTP
B2: E3 ubiquitin-protein ligase NEDD4, residues 836 to 881; numbered along this chain, P46934 (parent)
chain: EIEQGFLPKGWEVRHAPNGRPFFIDHNTKTTTWEDPRLKIPAHLRG

Variants of: B1
Test: abundance fitness (aPCA) (normalised: wild type 0, dead -1); higher = more abundant; growth selection in yeast, the domain comes from the species named
Settings: Homo sapiens

| Variant | abundance fitness |
| --- | --- |
| H34F | -0.301 ± 0.18 |
| H34M | -0.046 ± 0.13 |
| H34K | -0.211 ± 0.14 |
| N14A | -0.509 ± 0.4 |
| R72C | -0.143 ± 0.16 |
| R72A | 0.138 ± 0.11 |

Variants of: B2
Test: as above
Settings: Homo sapiens

| Variant | abundance fitness |
| --- | --- |
| F6Q | -0.297 ± 0.093 |
| F6V | 0.038 ± 0.044 |
| F6G | 0.09 ± 0.04 |
| F6M | -0.345 ± 0.061 |
| F6P | 0.001 ± 0.07 |
| F6I | 0.372 ± 0.058 |
| F6D | 0.241 ± 0.049 |
| F6Y | 0.018 ± 0.035 |
| F6C | 0.265 ± 0.06 |
| F6S | 0.16 ± 0.032 |
| F6R | 0.149 ± 0.037 |
| F6K | 0.117 ± 0.052 |
| F6L | 0.051 ± 0.031 |
| F6H | 0.05 ± 0.058 |
| F6A | 0.155 ± 0.034 |
| F6T | 0.202 ± 0.039 |
| F6W | -0.063 ± 0.058 |
| I2R | -0.141 ± 0.031 |
| I2V | -0.334 ± 0.064 |
| I2P | -0.953 ± 0.16 |
| I2Y | -0.326 ± 0.14 |
| I2A | -0.152 ± 0.05 |
| I2C | -0.217 ± 0.094 |

| Variant | abundance fitness |
| --- | --- |
| I2M | -0.044 ± 0.074 |
| I2H | -0.326 ± 0.16 |
| I2L | 0.11 ± 0.064 |
| I2F | -0.129 ± 0.095 |
| I2D | 0.035 ± 0.089 |
| I2T | -0.214 ± 0.099 |
| I2S | -0.166 ± 0.067 |
| I2E | -0.037 ± 0.094 |
| I2W | -0.271 ± 0.1 |
| I2Q | 0.178 ± 0.11 |
| I2K | -0.012 ± 0.082 |
| G10R | -0.627 ± 0.055 |
| G10P | -0.829 ± 0.2 |
| G10H | -0.493 ± 0.13 |
| G10F | -0.6 ± 0.14 |
| G10S | -0.831 ± 0.081 |
| G10N | -0.12 ± 0.062 |
| G10T | -1 ± 0.2 |
| G10V | -0.816 ± 0.1 |
| G10K | -0.886 ± 0.19 |
| G10M | -0.854 ± 0.16 |
| G10L | -0.95 ± 0.12 |
| G10I | -1.17 ± 0.28 |

| Variant | abundance fitness |
| --- | --- |
| G10D | -0.81 ± 0.11 |
| G10Y | -0.781 ± 0.041 |
| G10C | -0.722 ± 0.059 |
| G10W | -0.802 ± 0.061 |
| G10E | -0.605 ± 0.11 |
| G5E | -0.141 ± 0.076 |
| G5R | -0.123 ± 0.037 |
| G5N | 0.031 ± 0.05 |
| G5M | -0.175 ± 0.066 |
| G5I | -0.219 ± 0.052 |
| G5A | -0.064 ± 0.054 |
| G5P | -0.26 ± 0.055 |
| G5F | -0.158 ± 0.064 |
| G5L | -0.217 ± 0.044 |
| G5S | -0.068 ± 0.042 |
| G5Q | -0.299 ± 0.089 |
| G5Y | 0.008 ± 0.056 |
| G5V | -0.171 ± 0.053 |
| G5W | -0.105 ± 0.057 |
| G5H | -0.313 ± 0.095 |
| G5C | -0.21 ± 0.043 |
| G5K | 0.015 ± 0.042 |
| L7N | -1.01 ± 0.37 |

| Variant | abundance fitness |
| --- | --- |
| L7K | -0.601 ± 0.054 |
| L7C | -0.882 ± 0.16 |
| L7I | -0.493 ± 0.1 |
| L7E | -0.437 ± 0.056 |
| L7P | -0.473 ± 0.096 |
| L7Q | -0.38 ± 0.14 |
| L7S | -0.573 ± 0.055 |
| L7R | -1.03 ± 0.13 |
| L7Y | -0.915 ± 0.23 |
| L7G | -0.524 ± 0.048 |
| L7M | -0.186 ± 0.037 |
| L7T | -0.441 ± 0.1 |
| L7F | -0.459 ± 0.098 |
| L7A | -0.599 ± 0.061 |
| L7W | -0.577 ± 0.11 |
| L7H | -0.543 ± 0.12 |
| K9F | -0.825 ± 0.29 |
| K9N | -0.112 ± 0.038 |
| K9R | -0.205 ± 0.056 |
| K9W | -0.52 ± 0.047 |
| K9A | -0.124 ± 0.035 |
| K9Y | -0.316 ± 0.037 |
| K9Q | -0.078 ± 0.047 |

| Variant | abundance fitness |
| --- | --- |
| K9C | -0.268 ± 0.087 |
| K9H | -0.251 ± 0.11 |
| K9P | -0.211 ± 0.066 |
| K9T | -0.237 ± 0.091 |
| K9G | -0.252 ± 0.042 |
| K9S | -0.048 ± 0.04 |
| K9L | -0.257 ± 0.034 |
| K9E | -0.119 ± 0.037 |
| K9M | -0.344 ± 0.06 |
| E1A | -0.259 ± 0.12 |
| E1R | -0.07 ± 0.2 |
| E1V | -0.153 ± 0.076 |
| E1N | 0.381 ± 0.29 |
| E1D | -0.219 ± 0.14 |
| E1Y | 0.202 ± 0.45 |
| E1T | 0.091 ± 0.12 |
| E1G | -0.27 ± 0.046 |
| E1K | -0.095 ± 0.48 |
| P8N | -0.611 ± 0.063 |
| P8D | -0.626 ± 0.088 |
| P8K | 0.223 ± 0.15 |
| P8R | -0.648 ± 0.057 |
| P8M | -0.692 ± 0.3 |

| Variant | abundance fitness |
| --- | --- |
| P8V | -0.96 ± 0.16 |
| P8I | -0.623 ± 0.23 |
| P8L | -0.988 ± 0.23 |
| P8E | -0.594 ± 0.18 |
| P8G | -0.625 ± 0.067 |
| P8Q | -0.814 ± 0.25 |
| P8C | -0.969 ± 0.3 |
| P8F | -0.341 ± 0.38 |
| P8W | -0.856 ± 0.15 |
| P8A | -0.766 ± 0.26 |
| P8H | 0.162 ± 0.13 |
| P8T | -0.432 ± 0.12 |
| E3C | -0.141 ± 0.078 |
| E3V | -0.162 ± 0.057 |
| E3M | -0.073 ± 0.071 |
| E3Y | -0.07 ± 0.092 |
| E3D | -0.455 ± 0.11 |
| E3A | -0.251 ± 0.057 |
| E3L | -0.421 ± 0.1 |
| E3N | 0.097 ± 0.083 |
| E3T | -0.029 ± 0.042 |
| E3R | -0.366 ± 0.044 |
| E3I | -0.15 ± 0.11 |

| Variant | abundance fitness |
| --- | --- |
| E3K | -0.096 ± 0.074 |
| E3W | -0.35 ± 0.089 |
| E3Q | 0.098 ± 0.066 |
| E3F | -0.109 ± 0.098 |
| E3G | -0.044 ± 0.041 |
| Q4A | -0.146 ± 0.048 |
| Q4W | -0.298 ± 0.078 |
| Q4M | -0.387 ± 0.084 |
| Q4H | -0.172 ± 0.059 |
| Q4T | -0.242 ± 0.075 |
| Q4S | -0.024 ± 0.043 |
| Q4G | -0.09 ± 0.045 |
| Q4Y | -0.016 ± 0.083 |
| Q4D | -0.285 ± 0.11 |
| Q4K | 0.127 ± 0.067 |
| Q4N | -0.092 ± 0.059 |
| Q4P | -0.116 ± 0.042 |
| Q4L | -0.062 ± 0.051 |
| Q4F | 0.067 ± 0.074 |
| Q4E | 0.12 ± 0.077 |
| Q4C | 0.012 ± 0.057 |
| Q4I | -0.335 ± 0.084 |
| Q4R | -0.002 ± 0.042 |
